From paper PMC6162332, “A unique intracellular tyrosine in neuroligin-1 regulates AMPA receptor recruitment during synapse differentiation and potentiation” (Nature Communications, 2018) come the findings set out here.

The target of this test is T1, PSD-95-mCherry (rat, UniProt P31016 1-724).
T1 construct: PSD-95, rat; the rat PSD-95 gene subcloned in frame with an N-terminal mCherry into pET-24a(+) between EcoRI and XhoI; the methods give no limits; source: E. coli BL21-CodonPlus (DE3)-RIPL, purified (Ni-NTA, dialysed into PBS with 0.01% Tween-20); not shown: mCherry, N-terminal, kept
In words: pull-down; GST or GST-Nlg1 proteins (0.64 nmol/200 µl) on glutathione magnetic beads in PBS pH 7.4, 0.01% BSA, 0.01% Tween-20; incubated 20 min at RT with purified PSD-95-mCherry (0.01 nmol/100 µL); eluted with glutathione; anti-PSD-95 immunoblot. The settings on record: both partners purified.

Residue numbers refer to the chain shown, from its start. In names and notes the source's numbering stands.

T1 sequence (P31016 whole entry): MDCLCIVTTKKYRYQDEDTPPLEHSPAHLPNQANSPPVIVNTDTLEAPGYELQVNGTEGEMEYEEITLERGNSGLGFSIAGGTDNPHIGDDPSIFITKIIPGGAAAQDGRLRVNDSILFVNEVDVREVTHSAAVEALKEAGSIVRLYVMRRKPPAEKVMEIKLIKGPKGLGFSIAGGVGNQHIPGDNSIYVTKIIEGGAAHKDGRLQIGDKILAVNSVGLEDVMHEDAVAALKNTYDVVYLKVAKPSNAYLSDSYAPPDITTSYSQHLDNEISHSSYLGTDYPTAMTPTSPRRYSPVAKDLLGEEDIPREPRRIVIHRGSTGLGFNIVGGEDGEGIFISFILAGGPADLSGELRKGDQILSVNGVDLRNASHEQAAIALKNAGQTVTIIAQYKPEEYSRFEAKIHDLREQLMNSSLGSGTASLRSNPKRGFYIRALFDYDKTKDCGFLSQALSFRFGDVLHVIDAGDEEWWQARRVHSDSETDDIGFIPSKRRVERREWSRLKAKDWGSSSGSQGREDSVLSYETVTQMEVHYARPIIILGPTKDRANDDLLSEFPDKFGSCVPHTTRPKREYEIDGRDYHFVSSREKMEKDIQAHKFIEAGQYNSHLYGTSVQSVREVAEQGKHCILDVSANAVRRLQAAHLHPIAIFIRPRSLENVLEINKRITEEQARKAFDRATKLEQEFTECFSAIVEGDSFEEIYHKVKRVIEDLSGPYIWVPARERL

B1: GST-Nlg1-WT (GST fused to the intracellular domain of neuroligin-1) (domain or fragment, mouse, UniProt Q99K10 719-843, looked up)
chain: YKKDKRRHDVHRRCSPQRTTTNDLTHAPEEEIMSLQMKHTDLDHECESIHPHEVVLRTACPPDYTLAMRRSPDDIPLMTPNTITMIPNTIPGIQPLHTFNTFTGGQNNTLPHPHPHPHSHSTTRV
notes: neuroligin-1 (Nlg1), mouse, cytoplasmic tail amplified from HA-Nlg1 (with splice inserts A and B) and inserted in pGex-4T1 at XhoI/NotI; source: E. coli BL21 (DE3)-RIPL, purified (Glutathione Sepharose 4 Fast Flow, dialysed against PBS)
Take B1: the binding result is “binds”.

B2: GST-Nlg1-Y782F (domain or fragment, mouse, UniProt Q99K10 719-843, looked up)
chain: B1 chain with Y64F
notes: neuroligin-1 (Nlg1), mouse, cytoplasmic tail amplified from HA-Nlg1-Y782F and inserted in pGex-4T1 at XhoI/NotI; Same limits as m1 (same primers); source: E. coli BL21 (DE3)-RIPL, purified (Glutathione Sepharose 4 Fast Flow, dialysed against PBS)
Take B2: the binding result was “binds”.

B3: GST-Nlg1-Y782A (domain or fragment, mouse, UniProt Q99K10 719-843, looked up)
chain: B1 chain with Y64A
notes: neuroligin-1 (Nlg1), mouse, cytoplasmic tail amplified from HA-Nlg1-Y782A and inserted in pGex-4T1 at XhoI/NotI; Same limits as m1 (same primers); source: E. coli BL21 (DE3)-RIPL, purified (Glutathione Sepharose 4 Fast Flow, dialysed against PBS)
B3: the binding result is “binds”.
